Entries after “also recorded” stand apart in the source; their conditions may differ.
Tested on: androgenic alopecia model
Assay: First experiment: testosterone-induced androgenic alopecia model, hair observed by dermatoscope and scanning electron microscopy
Assay type: in vivo, C57BL/6 male mice
Protocol: Experimental animals: C57BL/6 male mice, 6-7 weeks old, weighing (20±2) g, were provided by Beijing Vital River Laboratory Animal Technology Co. Ltd., with the animal license number of SCXK (Beijing) 2021-0006. They were kept in a 12 h light/12 h dark environment, with free access to food and water. The mice were divided into normal NC group (NC), model group (Model), positive control-minoxidil group (Minoxidil), positive control-finasteride group (Finasteride), experimental group A and experimental group B. The proteins were stored in a −70° C. refrigerator and diluted with physiological saline when used. Experimental group A used rh-CRT-1, with a concentration of 0.21 mg/ml. Experimental group B used rh-CRT-2, with a concentration of 0.21 mg/ml. There were 6 mice in each group.
The main reagents used are as follows: 4% paraformaldehyde (Beijing Solarbio Technology Co., Ltd., China), isoflurane (Rayward, China), testosterone (Shanghai Standard Biotechnology Co., Ltd., China), paraffin sectioner (Thermo, USA), small animal anesthesia machine (Rayward, China), and inverted microscope (Olympus, Japan).
Modeling and drug administration: First, the androgenic alopecia model was established. One day before the modeling, the hair in the central part of the back of the experimental animal was removed with a skin preparation knife, and the prepared area was depilated with a depilatory cream. After 24 hours of depilation, the modeling agent (testosterone, 5.0 mg/mL) was subcutaneously injected into the neck of the mice in groups except the NC group, with a total dose of 0.2 mL/mouse. The mice in the NC group were injected with an equal amount of normal saline. After modeling, the mice were administrated with drugs. The NC group was injected with normal saline once a day, 0.15 mL/mouse each time. The experimental group A, experimental group B and positive control group were injected with modeling agent (testosterone), and administrated with drugs after 2 hours, and the dose of modeling agent was 0.2 mL/mouse. The experimental group A and experimental group B were injected on the back once a day, 0.15 mL/mouse each time. The positive control minoxidil group was applied 5% minoxidil externally, 0.01 mL/mouse, once a day. The positive control finasteride group was applied finasteride at a concentration of 13 μg/mL, 0.2 mL/mouse, once a day.

B1: CRT-2: fragment (1-349 aa) of recombinantly expressed CRT, amino acid sequence SEQ ID NO: 9 (protein)
chain: EPAVYFKEQFLDGDGWTSRWIESKHKSDFGKFVLSSGKFYGDEEKDKGLQTSQDARFYALSASFEPFSNKGQTLVVQFTVKHEQNIDCGGGYVKLFPNSLDQTDMHGDSEYNIMFGPDICGPGTKKVHVIFNYKGKNVLINKDIRCKDDEFTHLYTLIVRPDNTYEVKIDNSQVESGSLEDDWDFLPPKKIKDPDASKPEDWDERAKIDDPTDSKPEDWDKPEHIPDPDAKKPEDWDEEMDGEWEPPVIQNPEYKGEWKPRQIDNPDYKGTWIHPEIDNPEYSPDPSIYAYDNFGVLGLDLWQVKSGTIFDNFLITNDEAYAEEFGNETWGVTKAAEKQMKDKQDEEQR
With B1 the “changes in hair observed by dermatoscope” value (21 days, compared with the model group (frizzy hair), proteins 0.21 mg/ml injected on the back once a day, minoxidil 5% external, finasteride 13 μg/mL) was “smoother”, the “hair cuticles observed by scanning electron microscopy” value (21 days, proteins 0.21 mg/ml injected on the back once a day, minoxidil 5% external, finasteride 13 μg/mL, listed as experimental group B) was “arranged neatly; also recorded: denser than those of group A” and the “hair shafts (scanning electron microscopy, FIG. 18 vs FIG. 19)” value (first experiment, comparison of experimental groups B and A) was “thicker than those of experimental group A”.

Source: patent US20250000944A1, “USE OF RECOMBINANT CALRETICULIN IN HAIR GROWTH, HAIR BREEDING, HAIR PROTECTION OR ANTI-HAIR LOSS AND RELATED PRODUCT” (BEIJING YITUBAIHUI BIOTECH CO., LTD, priority 2021, published 2025)
